# Data published in patent publication US20230357348A1 (AstraZeneca / MedImmune, published 2023).
# Starred links: 1 amine or outer side, 2 acyl side, 3 side chain; linkers in the order of their positions; H or OH if unused. Non-standard residues stand in square brackets, D forms with d. Groups on a side chain read outwards from the residue. No end group written: not given here. *: point of attachment. C20 diacid = O=C(O)CCCCCCCCCCCCCCCCCCC(=O)*; C18 diacid = O=C(O)CCCCCCCCCCCCCCCCC(=O)*; γGlu = O=C(O)[C@H](CCC(=O)[*:2])N[*:1]; αMeF = C[C@](N)(Cc1ccccc1)C(=O)O; AEEA = NCCOCCOCC(=O)O; Aib = CC(C)(N)C(=O)O
# B1: Peptide 478 (peptide)
# peptide: H[Aib]QGTFTSDVSK[αMeF]LDTK([AEEA-AEEA-γGlu-C18 diacid])RAQDFVRWLLE[Aib]K-NH2
# modifications: N-terminus assumed
# SMILES: CC(C)C[C@H](NC(=O)[C@H](Cc1c[nH]c2ccccc12)NC(=O)[C@H](CCCNC(=N)N)NC(=O)[C@@H](NC(=O)[C@H](Cc1ccccc1)NC(=O)[C@H](CC(=O)O)NC(=O)[C@H](CCC(N)=O)NC(=O)[C@H](C)NC(=O)[C@H](CCCNC(=N)N)NC(=O)[C@H](CCCCNC(=O)COCCOCCNC(=O)COCCOCCNC(=O)CC[C@H](NC(=O)CCCCCCCCCCCCCCCCC(=O)O)C(=O)O)NC(=O)[C@@H](NC(=O)[C@H](CC(=O)O)NC(=O)[C@H](CC(C)C)NC(=O)[C@](C)(Cc1ccccc1)NC(=O)[C@H](CCCCN)NC(=O)[C@H](CO)NC(=O)[C@@H](NC(=O)[C@H](CC(=O)O)NC(=O)[C@H](CO)NC(=O)[C@@H](NC(=O)[C@H](Cc1ccccc1)NC(=O)[C@@H](NC(=O)CNC(=O)[C@H](CCC(N)=O)NC(=O)C(C)(C)NC(=O)[C@@H](N)Cc1c[nH]cn1)[C@@H](C)O)[C@@H](C)O)C(C)C)[C@@H](C)O)C(C)C)C(=O)N[C@@H](CC(C)C)C(=O)N[C@@H](CCC(=O)O)C(=O)NC(C)(C)C(=O)N[C@@H](CCCCN)C(N)=O
# B2: Peptide 484 (peptide)
# peptide: H[Aib]QGTFTSDVSK[αMeF]LDTK([AEEA-AEEA-γGlu-C20 diacid])RAQDFVQWLL[Aib]E-OH
# modifications: N-terminus assumed
# SMILES: CC(C)C[C@H](NC(=O)[C@H](Cc1c[nH]c2ccccc12)NC(=O)[C@H](CCC(N)=O)NC(=O)[C@@H](NC(=O)[C@H](Cc1ccccc1)NC(=O)[C@H](CC(=O)O)NC(=O)[C@H](CCC(N)=O)NC(=O)[C@H](C)NC(=O)[C@H](CCCNC(=N)N)NC(=O)[C@H](CCCCNC(=O)COCCOCCNC(=O)COCCOCCNC(=O)CC[C@H](NC(=O)CCCCCCCCCCCCCCCCCCC(=O)O)C(=O)O)NC(=O)[C@@H](NC(=O)[C@H](CC(=O)O)NC(=O)[C@H](CC(C)C)NC(=O)[C@](C)(Cc1ccccc1)NC(=O)[C@H](CCCCN)NC(=O)[C@H](CO)NC(=O)[C@@H](NC(=O)[C@H](CC(=O)O)NC(=O)[C@H](CO)NC(=O)[C@@H](NC(=O)[C@H](Cc1ccccc1)NC(=O)[C@@H](NC(=O)CNC(=O)[C@H](CCC(N)=O)NC(=O)C(C)(C)NC(=O)[C@@H](N)Cc1c[nH]cn1)[C@@H](C)O)[C@@H](C)O)C(C)C)[C@@H](C)O)C(C)C)C(=O)N[C@@H](CC(C)C)C(=O)NC(C)(C)C(=O)N[C@@H](CCC(=O)O)C(=O)O
# B3: Peptide 482 (peptide)
# peptide: H[Aib]QGTFTSDVSK[αMeF]LESK([AEEA-AEEA-γGlu-C18 diacid])RAQDFVQWLL[Aib]E-OH
# modifications: N-terminus assumed
# SMILES: CC(C)C[C@H](NC(=O)[C@H](Cc1c[nH]c2ccccc12)NC(=O)[C@H](CCC(N)=O)NC(=O)[C@@H](NC(=O)[C@H](Cc1ccccc1)NC(=O)[C@H](CC(=O)O)NC(=O)[C@H](CCC(N)=O)NC(=O)[C@H](C)NC(=O)[C@H](CCCNC(=N)N)NC(=O)[C@H](CCCCNC(=O)COCCOCCNC(=O)COCCOCCNC(=O)CC[C@H](NC(=O)CCCCCCCCCCCCCCCCC(=O)O)C(=O)O)NC(=O)[C@H](CO)NC(=O)[C@H](CCC(=O)O)NC(=O)[C@H](CC(C)C)NC(=O)[C@](C)(Cc1ccccc1)NC(=O)[C@H](CCCCN)NC(=O)[C@H](CO)NC(=O)[C@@H](NC(=O)[C@H](CC(=O)O)NC(=O)[C@H](CO)NC(=O)[C@@H](NC(=O)[C@H](Cc1ccccc1)NC(=O)[C@@H](NC(=O)CNC(=O)[C@H](CCC(N)=O)NC(=O)C(C)(C)NC(=O)[C@@H](N)Cc1c[nH]cn1)[C@@H](C)O)[C@@H](C)O)C(C)C)C(C)C)C(=O)N[C@@H](CC(C)C)C(=O)NC(C)(C)C(=O)N[C@@H](CCC(=O)O)C(=O)O
# B4: Peptide 479 (peptide)
# peptide: H[Aib]QGTFTSDVSK[αMeF]LDTK([AEEA-AEEA-γGlu-C20 diacid])RAQDFVRWLLE[Aib]K-NH2
# modifications: N-terminus assumed
# SMILES: CC(C)C[C@H](NC(=O)[C@H](Cc1c[nH]c2ccccc12)NC(=O)[C@H](CCCNC(=N)N)NC(=O)[C@@H](NC(=O)[C@H](Cc1ccccc1)NC(=O)[C@H](CC(=O)O)NC(=O)[C@H](CCC(N)=O)NC(=O)[C@H](C)NC(=O)[C@H](CCCNC(=N)N)NC(=O)[C@H](CCCCNC(=O)COCCOCCNC(=O)COCCOCCNC(=O)CC[C@H](NC(=O)CCCCCCCCCCCCCCCCCCC(=O)O)C(=O)O)NC(=O)[C@@H](NC(=O)[C@H](CC(=O)O)NC(=O)[C@H](CC(C)C)NC(=O)[C@](C)(Cc1ccccc1)NC(=O)[C@H](CCCCN)NC(=O)[C@H](CO)NC(=O)[C@@H](NC(=O)[C@H](CC(=O)O)NC(=O)[C@H](CO)NC(=O)[C@@H](NC(=O)[C@H](Cc1ccccc1)NC(=O)[C@@H](NC(=O)CNC(=O)[C@H](CCC(N)=O)NC(=O)C(C)(C)NC(=O)[C@@H](N)Cc1c[nH]cn1)[C@@H](C)O)[C@@H](C)O)C(C)C)[C@@H](C)O)C(C)C)C(=O)N[C@@H](CC(C)C)C(=O)N[C@@H](CCC(=O)O)C(=O)NC(C)(C)C(=O)N[C@@H](CCCCN)C(N)=O
# B5: Peptide 480 (peptide)
# peptide: H[Aib]QGTFTSDVSK[αMeF]LDTK([AEEA-AEEA-γGlu-C18 diacid])RARDFVQWLLE[Aib]K-NH2
# modifications: N-terminus assumed
# SMILES: CC(C)C[C@H](NC(=O)[C@H](Cc1c[nH]c2ccccc12)NC(=O)[C@H](CCC(N)=O)NC(=O)[C@@H](NC(=O)[C@H](Cc1ccccc1)NC(=O)[C@H](CC(=O)O)NC(=O)[C@H](CCCNC(=N)N)NC(=O)[C@H](C)NC(=O)[C@H](CCCNC(=N)N)NC(=O)[C@H](CCCCNC(=O)COCCOCCNC(=O)COCCOCCNC(=O)CC[C@H](NC(=O)CCCCCCCCCCCCCCCCC(=O)O)C(=O)O)NC(=O)[C@@H](NC(=O)[C@H](CC(=O)O)NC(=O)[C@H](CC(C)C)NC(=O)[C@](C)(Cc1ccccc1)NC(=O)[C@H](CCCCN)NC(=O)[C@H](CO)NC(=O)[C@@H](NC(=O)[C@H](CC(=O)O)NC(=O)[C@H](CO)NC(=O)[C@@H](NC(=O)[C@H](Cc1ccccc1)NC(=O)[C@@H](NC(=O)CNC(=O)[C@H](CCC(N)=O)NC(=O)C(C)(C)NC(=O)[C@@H](N)Cc1c[nH]cn1)[C@@H](C)O)[C@@H](C)O)C(C)C)[C@@H](C)O)C(C)C)C(=O)N[C@@H](CC(C)C)C(=O)N[C@@H](CCC(=O)O)C(=O)NC(C)(C)C(=O)N[C@@H](CCCCN)C(N)=O
# B6: Peptide 477 (peptide)
# peptide: H[Aib]QGTFTSDVSK[αMeF]LDTK([AEEA-AEEA-γGlu-C20 diacid])RAQDFVRWLLA[Aib]G-NH2
# modifications: N-terminus assumed
# SMILES: CC(C)C[C@H](NC(=O)[C@H](CC(C)C)NC(=O)[C@H](Cc1c[nH]c2ccccc12)NC(=O)[C@H](CCCNC(=N)N)NC(=O)[C@@H](NC(=O)[C@H](Cc1ccccc1)NC(=O)[C@H](CC(=O)O)NC(=O)[C@H](CCC(N)=O)NC(=O)[C@H](C)NC(=O)[C@H](CCCNC(=N)N)NC(=O)[C@H](CCCCNC(=O)COCCOCCNC(=O)COCCOCCNC(=O)CC[C@H](NC(=O)CCCCCCCCCCCCCCCCCCC(=O)O)C(=O)O)NC(=O)[C@@H](NC(=O)[C@H](CC(=O)O)NC(=O)[C@H](CC(C)C)NC(=O)[C@](C)(Cc1ccccc1)NC(=O)[C@H](CCCCN)NC(=O)[C@H](CO)NC(=O)[C@@H](NC(=O)[C@H](CC(=O)O)NC(=O)[C@H](CO)NC(=O)[C@@H](NC(=O)[C@H](Cc1ccccc1)NC(=O)[C@@H](NC(=O)CNC(=O)[C@H](CCC(N)=O)NC(=O)C(C)(C)NC(=O)[C@@H](N)Cc1c[nH]cn1)[C@@H](C)O)[C@@H](C)O)C(C)C)[C@@H](C)O)C(C)C)C(=O)N[C@@H](C)C(=O)NC(C)(C)C(=O)NCC(N)=O
# B7: Peptide 481 (peptide)
# peptide: H[Aib]QGTFTSDVSK[αMeF]LDTK([AEEA-AEEA-γGlu-C20 diacid])RARDFVQWLLE[Aib]K-NH2
# modifications: N-terminus assumed
# SMILES: CC(C)C[C@H](NC(=O)[C@H](Cc1c[nH]c2ccccc12)NC(=O)[C@H](CCC(N)=O)NC(=O)[C@@H](NC(=O)[C@H](Cc1ccccc1)NC(=O)[C@H](CC(=O)O)NC(=O)[C@H](CCCNC(=N)N)NC(=O)[C@H](C)NC(=O)[C@H](CCCNC(=N)N)NC(=O)[C@H](CCCCNC(=O)COCCOCCNC(=O)COCCOCCNC(=O)CC[C@H](NC(=O)CCCCCCCCCCCCCCCCCCC(=O)O)C(=O)O)NC(=O)[C@@H](NC(=O)[C@H](CC(=O)O)NC(=O)[C@H](CC(C)C)NC(=O)[C@](C)(Cc1ccccc1)NC(=O)[C@H](CCCCN)NC(=O)[C@H](CO)NC(=O)[C@@H](NC(=O)[C@H](CC(=O)O)NC(=O)[C@H](CO)NC(=O)[C@@H](NC(=O)[C@H](Cc1ccccc1)NC(=O)[C@@H](NC(=O)CNC(=O)[C@H](CCC(N)=O)NC(=O)C(C)(C)NC(=O)[C@@H](N)Cc1c[nH]cn1)[C@@H](C)O)[C@@H](C)O)C(C)C)[C@@H](C)O)C(C)C)C(=O)N[C@@H](CC(C)C)C(=O)N[C@@H](CCC(=O)O)C(=O)NC(C)(C)C(=O)N[C@@H](CCCCN)C(N)=O
# Target: human GLP-1 receptor (hGLP-1R) (human, UniProt P43220 24-463)
# Test: cell-based or functional assay
row,hGLP-1R EC50 (pM),Binder
1,9.18 pM,B1
2,339 pM,B2
3,190 pM,B3
4,34.2 pM,B4
5,12.6 pM,B5
6,54.1 pM,B6
7,178 pM,H[Aib]QGTFTSDVSK[αMeF]LDTK([AEEA-AEEA-γGlu-C18 diacid])RAQDFVQWLL[Aib]E-OH [Peptide 483]
8,52.2 pM,B7

# Target: human glucagon receptor (hGCGR) (human, UniProt P47871 26-477)
# Sequence (P47871 26-477): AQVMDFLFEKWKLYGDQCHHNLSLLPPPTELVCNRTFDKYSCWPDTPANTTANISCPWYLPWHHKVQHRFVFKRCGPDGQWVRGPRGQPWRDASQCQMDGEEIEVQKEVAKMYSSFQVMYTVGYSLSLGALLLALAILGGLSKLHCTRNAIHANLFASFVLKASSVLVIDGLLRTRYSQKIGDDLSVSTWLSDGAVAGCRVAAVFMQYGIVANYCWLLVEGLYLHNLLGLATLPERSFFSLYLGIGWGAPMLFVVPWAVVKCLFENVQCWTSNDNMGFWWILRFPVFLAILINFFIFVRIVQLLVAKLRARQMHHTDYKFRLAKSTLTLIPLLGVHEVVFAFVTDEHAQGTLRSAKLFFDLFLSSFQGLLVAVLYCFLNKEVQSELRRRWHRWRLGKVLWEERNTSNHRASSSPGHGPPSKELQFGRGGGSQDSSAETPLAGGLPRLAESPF
# Test: cell-based or functional assay
row,hGluc-R EC50 (pM),Binder
1,190 pM,B1
2,169 pM,B2
3,691 pM,B3
4,207 pM,B4
5,136 pM,B5
6,117 pM,B6
7,169 pM,H[Aib]QGTFTSDVSK[αMeF]LDTK([AEEA-AEEA-γGlu-C18 diacid])RAQDFVQWLL[Aib]E-OH [Peptide 483]
8,350 pM,B7
